Here are results for 3 substances from PMC9907115.

Common to all, as to experiment: cross-linking
In test [1] the target is OrgB^R21^p^Bpa (OrgB^M45 variant) (S. Typhimurium).
Test [2] deals with ^3FLAGSpaO (S. Typhimurium) (UniProt P40699).
Test [3] deals with ^3FLAGPrgH (S. Typhimurium) (UniProt P41783).
Sequence of UniProt P41783 (P41783 whole entry): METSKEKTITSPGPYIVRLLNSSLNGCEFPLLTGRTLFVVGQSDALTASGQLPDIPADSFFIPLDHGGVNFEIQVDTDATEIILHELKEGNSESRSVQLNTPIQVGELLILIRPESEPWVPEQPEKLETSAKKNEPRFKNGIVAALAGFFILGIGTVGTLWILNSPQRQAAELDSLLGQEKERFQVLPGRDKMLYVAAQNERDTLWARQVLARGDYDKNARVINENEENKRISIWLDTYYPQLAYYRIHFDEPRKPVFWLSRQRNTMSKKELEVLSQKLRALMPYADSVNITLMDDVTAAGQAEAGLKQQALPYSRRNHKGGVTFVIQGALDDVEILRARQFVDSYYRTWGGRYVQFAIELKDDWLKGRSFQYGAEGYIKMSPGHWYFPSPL

Sequence of UniProt P40699 (P40699 whole entry): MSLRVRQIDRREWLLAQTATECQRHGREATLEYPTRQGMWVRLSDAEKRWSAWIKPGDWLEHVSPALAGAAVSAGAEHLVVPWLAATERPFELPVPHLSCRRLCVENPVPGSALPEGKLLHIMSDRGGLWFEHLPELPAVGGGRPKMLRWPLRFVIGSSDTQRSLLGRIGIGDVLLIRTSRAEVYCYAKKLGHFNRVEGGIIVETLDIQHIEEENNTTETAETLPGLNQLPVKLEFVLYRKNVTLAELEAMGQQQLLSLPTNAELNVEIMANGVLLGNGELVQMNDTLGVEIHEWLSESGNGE

A word on the stoichiometry N: it is a count of units in the complex or per binding partner. Turning to “OrgB^R21^p^Bpa (OrgB^M45 variant) (natural protein)”, the stoichiometry N in test [1] came out at 2.
Turning to “OrgB^K20^p^Bpa (OrgB^M45 variant) (natural protein)”, the stoichiometry N (OrgB per SpaO) in test [2] stood at 2.
“OrgA^S70^p^Bpa/L104^p^Bpa (natural protein)” registered a stoichiometry N (PrgH per OrgA) in test [3] of 2.
